The values below come from patent US20200392251A1.

Experiment [1] has as its target human β-secretase 1 (BACE1), extracellular/catalytic domain (human) (UniProt P56817). As to the kind of experiment: FRET peptide inhibition assay; KI=IC50/(S/Km+1).
For experiment [2] the target is unchanged. As to the kind of experiment: biolayer interferometry; biotinylated protease on streptavidin sensor, Fab in solution. In general terms: BLI is a label-free optical method that tracks binding on a fibre tip over time.
For experiment [3] the target is unchanged. The experiment can be described thus: bio-layer interferometry (ForteBio), biotinylated protease on streptavidin biosensor, Fab in solution [panel B1B3].
Experiment [4] shares this target. The experiment can be described thus: enzyme inhibition assay with FRET peptide substrate (M-2420), Fab titrated on BACE1 [panel B1B3].
Experiment [5] addresses catalytic domain of MMP-9 (cdMMP-9) (UniProt P14780). The experiment can be described thus: bio-layer interferometry.
Experiment [6] has the same target. As to the kind of experiment: bio-layer interferometry; reference cdMMP-12 wt.
The target in experiment [7] is human β-secretase 1 (BACE1), extracellular/catalytic domain (human) (UniProt P56817). The experiment can be described thus: bio-layer interferometry (ForteBio), biotinylated protease on streptavidin biosensor, Fab in solution [panel B2B5].
Experiment [8] shares this target. As to the kind of experiment: enzyme inhibition assay with FRET peptide substrate (M-2420), Fab titrated on BACE1 [panel B2B5].
In experiment [9] the target is catalytic domain of MMP-9 (cdMMP-9) (UniProt P14780). The experiment can be described thus: FRET peptide inhibition assay; reference cdMMP-12 mutant D4.
The target is the same in experiment [10]. As to the kind of experiment: FRET peptide inhibition assay.
Experiment [11] deals with human β-secretase 1 (BACE1), extracellular/catalytic domain (human) (UniProt P56817). The experiment can be described thus: enzyme inhibition assay with FRET peptide substrate (M-2420), Fab titrated on BACE1 [panel B1A4].
The target is the same in experiment [12]. As to the kind of experiment: bio-layer interferometry (ForteBio), biotinylated protease on streptavidin biosensor, Fab in solution [panel B1A4].
For experiment [13] the target is unchanged. The experiment can be described thus: biolayer interferometry; IgG on protein A sensor, protease in solution.
Experiment [14] shares this target. The experiment can be described thus: enzyme inhibition assay with FRET peptide substrate, IgG titrated on BACE1 [panel A].
Experiment [15] has the same target. As to the kind of experiment: enzyme inhibition assay with FRET peptide substrate (M-2420), Fab titrated on BACE1 [panel B2B2].
Experiment [16] has the same target. The experiment can be described thus: bio-layer interferometry (ForteBio), biotinylated protease on streptavidin biosensor, Fab in solution [panel B2B2].
Experiment [17] has the same target. The experiment can be described thus: enzyme inhibition assay with FRET peptide substrate (M-2420), Fab titrated on BACE1 [panel B2B3].
Experiment [18] shares this target. The experiment can be described thus: bio-layer interferometry (ForteBio), biotinylated protease on streptavidin biosensor, Fab in solution [panel B2B3].

human β-secretase 1 (BACE1), extracellular/catalytic domain (human), sequence (P56817 46-457 limits assumed, form in doubt): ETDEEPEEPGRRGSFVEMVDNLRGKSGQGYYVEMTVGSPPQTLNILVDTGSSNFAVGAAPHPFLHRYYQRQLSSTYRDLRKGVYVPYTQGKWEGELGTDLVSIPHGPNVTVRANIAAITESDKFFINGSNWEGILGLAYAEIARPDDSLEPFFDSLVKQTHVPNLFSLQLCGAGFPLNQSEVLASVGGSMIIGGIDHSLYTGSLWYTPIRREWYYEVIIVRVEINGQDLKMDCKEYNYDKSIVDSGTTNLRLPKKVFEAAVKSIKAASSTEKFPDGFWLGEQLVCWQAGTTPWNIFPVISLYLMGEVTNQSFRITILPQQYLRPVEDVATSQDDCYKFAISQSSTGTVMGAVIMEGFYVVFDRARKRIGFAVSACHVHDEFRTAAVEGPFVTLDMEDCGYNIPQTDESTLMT

B1: anti-BACE1 Fab B1B3 (Fab, V domains shown)
VH: EVQLVESGGGLVQPGGSLRLSCAASGFNISYYSMHWVRQAPGKGLEWVASISPYYGSTYYADSVKGRFTISADTSKNTAYLQMNSLRAEDTAVYYCARERSSCPVGWRDSRFGADGYGLEYWGQGTLVTVSS
VL: DIQMTQSPSSLSASVGDRVTITCRASQSVSSAVAWYQQKPGKAPKLLIYSASSLYSGVPSRFSGSRSGTDFTLTISSLQPEDFATYYCQQSGHYHSLITFGQGTKVEIKR
For orientation: Ki means the equilibrium dissociation constant of an inhibitor or competing ligand from its target. Read a high Ki as a looser hold on the target. Broadly, the Kd is the equilibrium constant for the complex coming apart. As usually defined, the koff is the rate constant with which the complex falls apart. As usually defined, the kon is the rate constant with which the complex forms. Low values mean slower complex formation, high ones faster complex formation. By IC50 is commonly meant the midpoint of a concentration-inhibition curve. Lower therefore signals higher potency. The molecule B1 returned a Ki in [1] of 210 nM. The molecule further displayed a Kd in [2] of 31 nM. In experiment [3], the koff was 0.013 s⁻¹ and the kon amounted to 410000 M⁻¹ s⁻¹. The molecule further gave an IC50 in [4] of 270 nM.

B2: anti-MMP-12 Fab LG4 (Fab, V domains shown)
VH: EVQLVESGGGLVQPGGSLRLSCAASGFNLYYSYMHWVRQAPGKGLEWVASISSYYGYTSYADSVKGRFTISADTSKNTAYLQMNSLRAEDTAVYYCARSPIVYYELFMFIDMGAQGWKYGMDYWGQGTLVTVSS
VL: DIQMTQSPSSLSASVGDRVTITCRASQSVSSAVAWYQQKPGKAPKLLIYSASSLYSGVPSRFSGSRSGTDFTLTISSLQPEDFATYYCQQTFYPFTFGQGTKVEIKR
In [5], B2 showed a Kd of 720 nM. In experiment [6], this molecule came in with a fold (KD compared with cdMMP-12 wt) of 10 fold.

B3: anti-BACE1 Fab B2B5 (Fab, V domains shown)
VH: EVQLVESGGGLVQPGGSLRLSCAASGFNIYYSYMHWVRQAPGKGLEWVASIYPYYGSTYYADSVKGRFTISADTSKNTAYLQMNSLRAEDTAVYYCARWHGYPPGYSYYSSFSSSGFDYWGQGTLVTVSS
VL: DIQMTQSPSSLSASVGDRVTITCRASQSVSSAVAWYQQKPGKAPKLLIYSASSLYSGVPSRFSGSRSGTDFTPTISSLQPEDFATYYCQQSYFSYPITFGQGTKVEIKR
B3 gave a Ki in experiment [1] of 77 nM. In addition, in experiment [7], the koff is 0.024 s⁻¹ and the on-rate (kon) was 180000 M⁻¹ s⁻¹. In experiment [2], this molecule yielded a Kd of 130 nM. Moreover, the IC50 in [8] was found to be 97 nM.

B4: anti-MMP-12 Fab LH11 (Fab, V domains shown)
VH: EVQLVESGGGLVQPGGSLRLSCAASGFNLSYYSMHWVRQAPGKGLEWVAYIYPYYGSTYYADSVKGRFTISADTSKNTAYLQMNSLRAEDTAVYYCARFLLSIGKLFVGDGSILHVWL
VL: DIQMTQSPSSLSASVGDRVTITCRASQSVSSAVAWYQQKPGKAPKLLIYSASSLYSGVPSRFSGSRSGTDFTLTISSLQPEDFATYYCQQAYYGYLFTFGQGTKVEIKR
The molecule B4 returned a Kd in [5] of 740 nM. Besides, the fold (KI compared with cdMMP-12 mutant D4) in experiment [9] amounted to 83 fold. Further, the Ki in experiment [10] is 6200 nM. The same molecule registered a fold (KD compared with cdMMP-12 wt) in experiment [6] of 9.9 fold.

B5: anti-BACE1 Fab B1A4 (Fab, V domains shown)
VH: EVQLVESGGGLVQPGGSLRLSCAASGFNISYSSIHWVRQAPGKGLEWVAYISPSSSYTSYADSVKGRFTISADTSKNTAYLQMNSLRAEDTAVYYCARHYYVSVGSGIDYWGQGTLVTVSS
VL: DIQMTQSPSSLSASVGDRVTITCRASQSVSSAVAWYQQKPGKAPKLLIYSASSLYSGVPSRFSGSRSGTDFTPTISSLQPEDFATYYCQQASASPYALITFGQGTKVEIKR
On to B5, for which the Ki in experiment [1] came out at 41 nM. The molecule further returned an IC50 in experiment [11] of 52 nM. In experiment [2], this molecule yielded a Kd of 21 nM. In [12], this molecule showed a koff of 0.0086 s⁻¹ and a kon of 420000 M⁻¹ s⁻¹.

B6: anti-BACE1 IgG B1A4 (antibody, V domains shown)
VH: EVQLVESGGGLVQPGGSLRLSCAASGFNISYSSIHWVRQAPGKGLEWVAYISPSSSYTSYADSVKGRFTISADTSKNTAYLQMNSLRAEDTAVYYCARHYYVSVGSGIDYWGQGTLVTVSS
VL: DIQMTQSPSSLSASVGDRVTITCRASQSVSSAVAWYQQKPGKAPKLLIYSASSLYSGVPSRFSGSRSGTDFTPTISSLQPEDFATYYCQQASASPYALITFGQGTKVEIKR
With B6, the Ki in experiment [1] was 35 nM. Moreover, the Kd in [13] came out at 16 nM. In addition, in experiment [14], the IC50 stood at 45 nM.

B7: anti-MMP-12 Fab LH6 (Fab, V domains shown)
VH: EVQLVESGGGLVQPGGSLRLSCAASGFNLSYSYMHWVRQAPGKGLEWVASIYPSYGSTYYADSVKGRFTISADTSKNTAYLQMNSLRAEDTAVYYCARDLEESLPKRARTAVSKELESVPYVMDYWGQGTLVTVSS
VL: DIQMTQSPSSLSASVGDRVTITCRASQSVSSAVAWYQQKPGKAPKLLIYSASSLYSGVPSRFSGSRSGTDFTLTISSLQPEDFATYYCQQSSHYASPPITFGQGTKVEIKR
Molecule B7 showed a Kd in [5] of 950 nM. Moreover, the fold (KI compared with cdMMP-12 mutant D4) in experiment [9] amounted to 16 fold. Besides, the Ki in [10] is 1500 nM. The fold (KD compared with cdMMP-12 wt) in experiment [6] was found to be 2.2 fold.

B8: anti-BACE1 Fab B2B2 (Fab, V domains shown)
VH: EVQLVESGGGLVQPGGSLRLSCAASGFNISSYYMHWVRQAPGKGLEWVASIYSSYGYTYYADSVKGRFTISADTSKNTAYLQMNSLRAEDTAVYYCARYWGYYAWFGSHPWAYGAFDYWGQGTLVTVSS
VL: DIQMTQSPSSLSASVGDRVTITCRASQSVSSAVAWYQQKPGKAPKLLIYSASSLYSGVPSRFSGSRSGTDFTLTISSLQPEDFATYYCQQYGYYLITFGQGTKVEIKR
In experiment [15], B8 yielded an IC50 of 110 nM. Also, the Ki in experiment [1] worked out at 87 nM. The Kd in experiment [2] came out at 52 nM. In addition, in experiment [16], the koff amounted to 0.0091 s⁻¹ and the kon was found to be 180000 M⁻¹ s⁻¹.

B9: anti-BACE1 Fab B2B3 (Fab, V domains shown)
VH: EVQLVESGGGLVQPGGSLRLSCAASGFNISYSSIHWVRQAPGKGLEWVAYISSYSSSTYYADSVKGRFTISADTSKNTAYLQMNSLRAEDTAVYYCARSASGIDYWGQGTLVTVSS
VL: DIQMTQSPSSLSASVGDRVTITCRASQSVSSAVAWYQQKPGKAPKLLIYSASSLYSGVPSRFSGSRSGTDFTLTISSLQPEDFATYYCQQSGYAPFTFGQGTKVEIKR
B9 gave an IC50 in [17] of 130 nM. Also, the Ki in experiment [1] came out at 100 nM. In experiment [18], this molecule came in with a koff of 0.0097 s⁻¹ and an association rate constant (kon) of 93000 M⁻¹ s⁻¹. This molecule had a Kd in experiment [2] of 100 nM.
